According to PMC4026020:

T1: MBP-AtTZF1 RR-TZF C101R/C136R/C171R (Arabidopsis thaliana, UniProt O82307 86-195, C101R;C136R;C171R)
T1 sequence: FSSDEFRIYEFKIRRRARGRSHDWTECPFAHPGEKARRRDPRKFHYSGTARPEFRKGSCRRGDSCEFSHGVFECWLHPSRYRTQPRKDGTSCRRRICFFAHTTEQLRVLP

T2: MBP-AtTZF1 RR-TZF C101R (Arabidopsis thaliana, UniProt O82307 86-195, C101R)
T2 sequence: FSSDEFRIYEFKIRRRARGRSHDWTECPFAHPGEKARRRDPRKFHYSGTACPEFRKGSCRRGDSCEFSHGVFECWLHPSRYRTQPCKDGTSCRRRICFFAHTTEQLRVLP

T3: MBP-AtTZF1 RR-TZF C136R/C171R (Arabidopsis thaliana, UniProt O82307 86-195, C136R;C171R)
T3 sequence: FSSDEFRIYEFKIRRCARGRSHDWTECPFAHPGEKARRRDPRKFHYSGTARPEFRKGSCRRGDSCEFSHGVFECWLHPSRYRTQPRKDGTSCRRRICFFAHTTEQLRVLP

T4: MBP-AtTZF1 RR;MBP-AtTZF1 TZF (Arabidopsis thaliana;Arabidopsis …, UniProt O82307;O82307 86-128;129-195, |)
T4 sequence 1: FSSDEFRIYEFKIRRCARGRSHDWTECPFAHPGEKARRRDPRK
T4 sequence 2: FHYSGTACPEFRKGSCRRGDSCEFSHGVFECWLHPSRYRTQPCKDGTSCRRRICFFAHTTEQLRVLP


What was measured:
Assay in all cases: fluorescence anisotropy
[1] = biological target: T1, MBP-AtTZF1 RR-TZF C101R/C136R/C171R
MBP-AtTZF1 RR-TZF C101R = biological target: T2, MBP-AtTZF1 RR-TZF C101R
[2] = biological target: T3, MBP-AtTZF1 RR-TZF C136R/C171R
[3] = biological target: T4, MBP-AtTZF1 RR;MBP-AtTZF1 TZF

Binder	Kd [1] [nM]	Kd (MBP-AtTZF1 RR-TZF C101R) [nM]	Kd [2] [nM]	Kd [3] [nM]
UUUUUUUUUUUUUUUUUUU (ssRNA) [Fl-polyU]	3110 ± 80	810 ± 40	1610 ± 40	4400 ± 100
UAUUUAUUAUUUAUUUAUU (ssRNA) [Fl-ARE19]			1540 ± 50	610 ± 40
